Source: patent publication US20230038638A1, “COMPLEMENT FACTOR I-RELATED COMPOSITIONS AND METHODS” (published 2023)
Where a chain is given by its changes, count along the chain named.

Key:
human C4b (human) [1] = target: T1, human C4b (human) (UniProt P0C0L5)
T1 sequence: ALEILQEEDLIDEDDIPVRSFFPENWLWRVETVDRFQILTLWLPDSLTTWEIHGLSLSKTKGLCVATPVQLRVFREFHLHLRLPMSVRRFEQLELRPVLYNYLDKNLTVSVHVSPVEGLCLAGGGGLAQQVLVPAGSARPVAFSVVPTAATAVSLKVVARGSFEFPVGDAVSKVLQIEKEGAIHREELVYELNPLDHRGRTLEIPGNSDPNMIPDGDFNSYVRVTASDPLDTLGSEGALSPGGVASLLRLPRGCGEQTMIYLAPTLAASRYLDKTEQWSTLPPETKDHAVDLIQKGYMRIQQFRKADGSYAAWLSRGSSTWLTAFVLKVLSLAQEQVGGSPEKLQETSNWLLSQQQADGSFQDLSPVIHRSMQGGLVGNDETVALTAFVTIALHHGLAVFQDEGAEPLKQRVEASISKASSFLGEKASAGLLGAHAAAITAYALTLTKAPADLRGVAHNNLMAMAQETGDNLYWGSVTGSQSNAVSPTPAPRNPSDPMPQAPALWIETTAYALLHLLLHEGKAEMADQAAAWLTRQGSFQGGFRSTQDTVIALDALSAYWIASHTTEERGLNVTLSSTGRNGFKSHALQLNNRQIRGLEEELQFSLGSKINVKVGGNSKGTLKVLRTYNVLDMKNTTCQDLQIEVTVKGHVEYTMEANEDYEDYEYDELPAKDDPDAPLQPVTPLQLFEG

[2] = target: soluble human C3b (human) (UniProt P01024)
[3] = target: soluble human C3b (human) (UniProt P01024); remark: listed apart in the source
human C4b (human) [4] = target: T2, human C4b (human) (UniProt P0C0L4)
T2 sequence: T1 sequence with T151A, G317D, L364P, S365C, I368L, H369D, S420N, A451V, R454L, A530S

CFI-HSA wild type (enzyme), sequence (chain): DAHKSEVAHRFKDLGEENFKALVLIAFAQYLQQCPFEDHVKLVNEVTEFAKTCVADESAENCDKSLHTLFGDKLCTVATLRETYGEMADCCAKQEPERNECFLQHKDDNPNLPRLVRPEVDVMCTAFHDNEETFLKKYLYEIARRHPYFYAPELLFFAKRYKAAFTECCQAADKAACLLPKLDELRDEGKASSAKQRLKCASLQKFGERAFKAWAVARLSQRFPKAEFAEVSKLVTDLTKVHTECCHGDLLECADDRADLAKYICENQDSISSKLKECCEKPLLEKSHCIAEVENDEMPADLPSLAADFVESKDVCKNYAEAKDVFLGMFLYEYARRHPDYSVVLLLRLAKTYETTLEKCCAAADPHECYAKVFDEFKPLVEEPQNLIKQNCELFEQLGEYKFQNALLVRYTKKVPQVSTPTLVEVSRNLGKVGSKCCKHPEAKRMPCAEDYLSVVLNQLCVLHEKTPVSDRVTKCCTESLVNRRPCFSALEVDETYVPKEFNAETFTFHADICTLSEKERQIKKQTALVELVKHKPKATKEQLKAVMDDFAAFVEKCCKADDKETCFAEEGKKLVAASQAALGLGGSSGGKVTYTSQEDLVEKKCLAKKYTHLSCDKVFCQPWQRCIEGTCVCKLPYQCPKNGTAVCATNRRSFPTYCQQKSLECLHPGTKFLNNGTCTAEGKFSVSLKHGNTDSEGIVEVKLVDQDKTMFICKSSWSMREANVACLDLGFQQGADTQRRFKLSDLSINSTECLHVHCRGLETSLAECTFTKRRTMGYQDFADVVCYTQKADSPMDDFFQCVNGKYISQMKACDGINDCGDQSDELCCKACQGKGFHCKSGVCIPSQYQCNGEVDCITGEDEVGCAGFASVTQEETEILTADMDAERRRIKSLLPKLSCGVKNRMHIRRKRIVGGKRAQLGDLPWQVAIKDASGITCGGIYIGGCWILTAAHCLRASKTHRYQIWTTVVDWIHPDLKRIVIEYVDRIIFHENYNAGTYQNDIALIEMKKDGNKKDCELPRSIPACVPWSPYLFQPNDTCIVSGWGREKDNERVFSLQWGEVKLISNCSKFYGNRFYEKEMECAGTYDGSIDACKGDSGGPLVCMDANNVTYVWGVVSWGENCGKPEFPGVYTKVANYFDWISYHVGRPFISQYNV

Substance | C4b Screen Ref Fold (fold of CFI-HSA wild type) (human C4b (human) [1]) | iC3b Screen Ref Fold (fold of CFI-HSA wild type) [2] | iC3b EC50 [3] | C4c EC50 (human C4b (human) [4]) | C4c EC50 (nM) (human C4b (human) [4]) | C4b Screen Ref Fold (fold vs CFI-HSA wild type) (human C4b (human) [1]) | iC3b Screen Ref Fold (fold vs CFI-HSA wild type) [2]
CFI-HSA variant Y408L; E457G; P535G (enzyme) | 1.21 | 0.6 | 11.7 nM | 205 nM |  |  | 
CFI-HSA variant P535G; D425K (enzyme) | 0.1 | 0.53 | 19.4 nM | 865 nM |  |  | 
CFI-HSA variant E457G; N531G; E461Q; R462K; F464Y; E416A (enzyme) | 4.38 | 2.21 | 5.2 nM |  | 7.5 nM |  | 
CFI-HSA variant D506G (enzyme) |  |  | > 500 nM |  | > 1000 nM | 0.09 | 0
CFI-HSA variant E530D; F537K (enzyme) |  |  | 15.6 nM |  | 373 nM | 0.92 | 0.98
CFI-HSA variant F464Y (enzyme) |  |  | 55.4 nM |  | 347 nM | 0.55 | 0.27
CFI-HSA variant N531G; E457G; E461Q (enzyme) |  |  | 5.6 nM |  | 29.3 nM | 6.42 | 0.95
CFI-HSA variant E457G; N422K (enzyme) | 5.49 | 1.51 | 5.2 nM | 32.6 nM |  |  | 
CFI-HSA variant E457F (enzyme) |  |  | 96.8 nM |  | > 1000 nM | 0.01 | 0.05
CFI-HSA wild type (enzyme) |  |  | 28.4 nM |  | 299 nM | 1 | 1
CFI-HSA variant R557K (enzyme) |  |  | 99.9 nM |  | 266 nM | 3.09 | 0.28
CFI-HSA variant E457I (enzyme) |  |  | 20.5 nM |  | 256 nM | 1.75 | 0.99
CFI-HSA variant P535G; E416A (enzyme) | 0.13 | 0.53 | 41.6 nM |  | > 1000 nM |  | 
CFI-HSA variant E457G; N531G; P535G; K534Q (enzyme) | 5.28 | 2.34 | 8.2 nM | 48.3 nM |  |  | 
CFI-HSA variant P558A (enzyme) | 1.21 | 0.87 | 20.8 nM | 213 nM |  |  | 
CFI-HSA variant F537K (enzyme) |  |  | 40.2 nM |  | 890 nM | 0.3 | 1.28
CFI-HSA variant E457G; E461Q (enzyme) |  |  | 5.5 nM |  | 53.1 nM | 5.84 | 1.44
CFI-HSA variant E457G; N531G; D425R; E416A (enzyme) | 4.54 | 2.12 | 3.1 nM |  | 4.1 nM |  | 
CFI-HSA variant K504L (enzyme) |  |  | 144 nM |  | > 1000 nM | 0.01 | 0.12

Substance | C4b Screen Ref Fold (fold of CFI-HSA wild type) (human C4b (human) [1]) | iC3b Screen Ref Fold (fold of CFI-HSA wild type) [2] | iC3b EC50 [3] | C4c EC50 (human C4b (human) [4]) | C4c EC50 (nM) (human C4b (human) [4]) | C4b Screen Ref Fold (fold vs CFI-HSA wild type) (human C4b (human) [1]) | iC3b Screen Ref Fold (fold vs CFI-HSA wild type) [2]
CFI-HSA variant E530Y (enzyme) |  |  | 16.1 nM |  | 381 nM | 0.33 | 1.16
CFI-HSA variant A502S (enzyme) |  |  | 26.7 nM |  | 640 nM | 0.36 | 0.96
CFI-HSA variant N422K (enzyme) |  |  | 10.9 nM |  | 359 nM | 2.13 | 1.36
CFI-HSA variant K534Q (enzyme) |  |  | 21.7 nM |  | 595 nM | 1.76 | 1.53
CFI-HSA variant E457G; D425R; E416A (enzyme) | 4.35 | 2.48 | 3.1 nM |  | 59.3 nM |  | 
CFI-HSA variant G556S (enzyme) | 1.53 | 0.55 | 29.7 nM | 180 nM |  |  | 
CFI-HSA variant P558L (enzyme) |  |  | 12.4 nM |  | 472 nM | 0.89 | 0.99
CFI-HSA variant E457G; N531G; P558S (enzyme) | 5.87 | 0.92 | 6.7 nM | 17.5 nM |  |  | 
CFI-HSA variant Y408L; E457G; N531G; P535G; P558S (enzyme) | 4.34 | 1.39 | 9.6 nM | 27.9 nM |  |  | 
CFI-HSA variant E457G; E416A (enzyme) | 4.63 | 1.41 | 7.1 nM | 94.9 nM |  |  | 
CFI-HSA variant Y408L; P535G; D425K (enzyme) | 0 | 0.56 | 19.7 nM | > 1000 nM |  |  | 
CFI-HSA variant A502S; K504Q; F537K (enzyme) |  |  | 31.2 nM |  | 810 nM | 0.93 | 1.07
CFI-HSA variant F559L; Y563H (enzyme) | 1.03 | 0.71 | 39.6 nM | 130 nM |  |  | 
CFI-HSA variant G556A (enzyme) | 1.06 | 0.15 | 76 nM | > 1000 nM |  |  | 
CFI-HSA variant F537R (enzyme) |  |  | 29.1 nM |  | 645 nM | 0.16 | 1.08
CFI-HSA variant Y408L; P535G (enzyme) | 0 | 0.27 | 50.9 nM | > 1000 nM |  |  | 
CFI-HSA variant E530G; N531G (enzyme) |  |  | 31.3 nM |  | > 1000 nM | 0.04 | 0.54
CFI-HSA variant N531G; P535A (enzyme) |  |  | 7.9 nM |  | 53.4 nM | 5.6 | 1.53
CFI-HSA variant E457H (enzyme) |  |  | 78.7 nM |  | 886 nM | 0.31 | 0.26
